Columns and labels:
[1] = target: full-length gp120 monomer (HIV-1, isolate ; JRCSF as …, UniProt P20871); test: ITC
[2] = target: full-length gp120 pre-complexed with CD4 (HIV-1, isolate  (JRCSF as …, UniProt P20871;P01730)); test: ITC

B1: PGT124 Fab (Fab, V domains shown)
VH: QVQLQESGPGLVRPSETLSVTCIVSGGSISNYYWTWIRQSPGKGLEWIGYISDRETTTYNPSLNSRAVISRDTSKNQLSLQLRSVTTADTAIYFCATARRGQRIYGVVSFGEFFYYYYMDVWGKGTAVTVSS
VL: SYVSPLSVALGETARISCGRQALGSRAVQWYQHKPGQAPILLIYNNQDRPSGIPERFSGTPDINFGTTATLTISGVEVGDEADYYCHMWDSRSGFSWSFGGATRLTVL
Work on B1 yielded a Kd [1] of 38 nM and a Kd [2] of 34 nM.
